Substrate: CO[C@@H]1O[C@H](CO)[C@H](O)[C@@H](O)[C@H]1O
Assay: purified protein
Type: biochemical, Escherichia coli
Details: oxidation, 2.0 mM NAD+, 50 mM HEPES/K+, pH 8.0, 30 °C

B1: YcjQ (Escherichia coli K-12) (protein)
chain: MKKLVATAPRVAALVEYEDRAILANEVKIRVRFGAPKHGTEVVDFRAASPFIDEDFNGEWQMFTPRPADAPRGIEFGKFQLGNMVVGDIIECGSDVTDYAVGDSVCGYGPLSETVIINAVNNYKLRKMPQGSSWKNAVCYDPAQFAMSGVRDANVRVGDFVVVVGLGAIGQIAIQLAKRAGASVVIGVDPIAHRCDIARRHGADFCLNPIGTDVGKEIKTLTGKQGADVIIETSGYADALQSALRGLAYGGTISYVAFAKPFAEGFNLGREAHFNNAKIVFSRACSEPNPDYPRWSRKRIEETCWELLMNGYLNCEDLIDPVVTFANSPESYMQYVDQHPEQSIKMGVTF
Q: Which results are given for B1?
A: Km: 12.5 ± 1.5 mM; kcat: 0.35 ± 0.03 s⁻¹; kcat/Km: 28 ± 3 M⁻¹ s⁻¹

From paper PMC6613369
